Results: paper PMC3606321, “Identification and characterization of two distinct PPP1R2 isoforms in human spermatozoa” (BMC Cell Biology, 2013)

Columns and labels:
[1] = biological target: purified recombinant PPP1CC1 (UniProt P36873 1-323); test: cell-based or functional assay
[2] = biological target: purified recombinant PPP1CC2 (UniProt P36873-2 1-337); test: cell-based or functional assay
Sequence of purified recombinant PPP1CC2 (P36873 other isoform, or with tags, fused parts or gaps): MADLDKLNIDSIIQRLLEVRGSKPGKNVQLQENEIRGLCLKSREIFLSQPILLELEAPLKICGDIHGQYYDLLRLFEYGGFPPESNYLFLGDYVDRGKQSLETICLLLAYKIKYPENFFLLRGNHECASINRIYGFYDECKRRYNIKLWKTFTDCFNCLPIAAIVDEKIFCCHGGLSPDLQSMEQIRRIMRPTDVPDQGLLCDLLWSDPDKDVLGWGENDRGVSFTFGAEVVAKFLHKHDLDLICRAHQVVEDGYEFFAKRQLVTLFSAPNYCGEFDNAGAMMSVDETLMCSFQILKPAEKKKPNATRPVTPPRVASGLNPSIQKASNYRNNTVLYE

Sequence of purified recombinant PPP1CC1 (P36873 whole entry): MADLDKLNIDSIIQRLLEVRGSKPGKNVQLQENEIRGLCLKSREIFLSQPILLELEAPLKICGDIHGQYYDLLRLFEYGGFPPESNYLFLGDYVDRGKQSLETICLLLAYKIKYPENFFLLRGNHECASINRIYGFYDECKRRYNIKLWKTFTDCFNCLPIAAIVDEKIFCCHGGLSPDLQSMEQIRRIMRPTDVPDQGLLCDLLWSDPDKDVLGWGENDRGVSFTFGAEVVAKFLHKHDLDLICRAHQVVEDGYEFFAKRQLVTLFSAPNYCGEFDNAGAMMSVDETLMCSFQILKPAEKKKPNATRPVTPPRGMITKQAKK

- IC50 of inhibition of PPP1CC1 in the phosphorylase phosphatase assay ([32P]phosphorylase a as substrate) [1]: 730 pM
- IC50 of inhibition of PPP1CC2 in the phosphorylase phosphatase assay ([32P]phosphorylase a as substrate) [2]: 90 pM
B1: His-PPP1R2P3 (natural protein, human, UniProt Q6NXS1 1-205, looked up)
chain: MAASTASHRPIKGILKNKTSTTSSMVASAEQPRRSVDEELSKKSQKWDEINILATYHPADKGYGLMKIDEPSPPYHSMMGDDEDACRDTETTEAMAPDILAKKLAAAEGLEPKYRIQEQESSGEEDSDLSPEEREKKRQFEMRRKLHYNEGLNIKLARQLISKDLHDDDEDEEMLETADGESMNTEESNQGSTPSDQQQNKLRSS
